Where a chain is given by its changes, count along the chain named.

The Kd is the free concentration of one partner at which half of the binding sites on the other are occupied at equilibrium, for simple one-to-one binding. Low values mean higher affinity, high ones lower affinity.

Assay in all cases: competitive inhibition of enzyme activity
Test [1] has as its target T1, [NO2Y730]-α2(Y731A) (E. coli, UniProt P00452 1-761, Y731A, 3-nitrotyrosine (NO2Y) in place of Y730).
T1 sequence (looked up): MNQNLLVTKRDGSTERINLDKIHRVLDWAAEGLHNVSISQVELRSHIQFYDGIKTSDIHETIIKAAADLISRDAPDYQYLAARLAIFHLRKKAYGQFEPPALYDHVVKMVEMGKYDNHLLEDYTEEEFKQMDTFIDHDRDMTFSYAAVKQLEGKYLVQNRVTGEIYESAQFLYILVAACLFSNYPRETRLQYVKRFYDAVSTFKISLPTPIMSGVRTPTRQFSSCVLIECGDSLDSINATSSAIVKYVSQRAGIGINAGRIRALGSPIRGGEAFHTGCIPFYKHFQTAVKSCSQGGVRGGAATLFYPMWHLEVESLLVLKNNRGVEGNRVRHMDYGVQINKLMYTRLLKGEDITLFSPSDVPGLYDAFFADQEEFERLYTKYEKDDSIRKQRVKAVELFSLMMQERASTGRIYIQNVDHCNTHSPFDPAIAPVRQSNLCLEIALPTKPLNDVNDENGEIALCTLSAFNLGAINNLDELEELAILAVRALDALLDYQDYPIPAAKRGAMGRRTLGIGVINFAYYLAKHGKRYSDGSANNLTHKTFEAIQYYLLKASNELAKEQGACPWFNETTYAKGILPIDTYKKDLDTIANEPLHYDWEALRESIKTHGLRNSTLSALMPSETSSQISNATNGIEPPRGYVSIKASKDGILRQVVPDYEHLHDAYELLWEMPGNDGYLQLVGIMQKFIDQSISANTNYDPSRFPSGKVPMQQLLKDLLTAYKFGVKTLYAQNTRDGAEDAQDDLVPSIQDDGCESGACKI

In test [2] the target is T2, [NO2Y731]-α2(Y730F) (E. coli, UniProt P00452 1-761, Y730F, 3-nitrotyrosine (NO2Y) in place of Y731).
T2 sequence (looked up): T1 sequence (looked up) with Y730F, A731Y

Test [3] deals with T3, [NO2Y730]-α2(C439A) (E. coli, UniProt P00452 1-761, C439A, 3-nitrotyrosine (NO2Y) in place of Y730).
T3 sequence (looked up): T1 sequence (looked up) with C439A, A731Y

B1: wild-type E. coli ribonucleotide reductase β2 subunit (enzyme, UniProt P69924 1-376, looked up)
chain: MAYTTFSQTKNDQLKEPMFFGQPVNVARYDQQKYDIFEKLIEKQLSFFWRPEEVDVSRDRIDYQALPEHEKHIFISNLKYQTLLDSIQGRSPNVALLPLISIPELETWVETWAFSETIHSRSYTHIIRNIVNDPSVVFDDIVTNEQIQKRAEGISSYYDELIEMTSYWHLLGEGTHTVNGKTVTVSLRELKKKLYLCLMSVNALEAIRFYVSFACSFAFAERELMEGNAKIIRLIARDEALHLTGTQHMLNLLRSGADDPEMAEIAEECKQECYDLFVQAAQQEKDWADYLFRDGSMIGLNKDILCQYVEYITNIRMQAVGLDLPFQTRSNPIPWINTWLVSDNVQVAPQEVEVSSYLVGQIDSEVDTDDLSNFQL
modifications: tyrosyl radical at Y122 (1-1.2 radicals per β2), diferric cluster
As for B1, the Kd in test [1] amounted to 2710 ± 130 nM; in test [2], 500 ± 40 nM; in test [3], 2070 ± 70 nM.

(Values after paper PMC2905227 (Journal of the American Chemical Society, 2010).)
